Measured values: publication PMC10588558, “On the regulation of human D‐aspartate oxidase” (Protein Science : A Publication of the Protein Society, 2023)

T1: hDASPO (hDASPO_341), human D-aspartate oxidase (Homo sapiens, UniProt Q99489)
T1 construct: gene DDO; full-length canonical isoform, 341 residues; His-tagged (pET11-His-hDASPO), E. coli BL21(DE3) LOBSTR, HiTrap chelating
T1 sequence (Q99489 1-341): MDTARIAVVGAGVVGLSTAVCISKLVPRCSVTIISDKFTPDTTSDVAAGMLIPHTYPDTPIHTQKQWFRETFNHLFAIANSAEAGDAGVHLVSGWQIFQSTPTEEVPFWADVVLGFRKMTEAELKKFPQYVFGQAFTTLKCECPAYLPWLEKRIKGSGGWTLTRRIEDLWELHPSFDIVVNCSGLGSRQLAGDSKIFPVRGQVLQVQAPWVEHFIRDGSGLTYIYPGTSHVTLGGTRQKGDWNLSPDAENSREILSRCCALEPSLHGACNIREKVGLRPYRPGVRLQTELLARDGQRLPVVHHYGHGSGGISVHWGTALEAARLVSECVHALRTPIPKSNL

T2: hDASPO-RED (recombinant hDASPO labelled with the RED-NHS dye) (human, UniProt Q99489 1-341, RED-NHS fluorescent dye on primary amines (lysine residues), degree of labeling ~0.7)
T2 construct: human D-aspartate oxidase, canonical isoform 1 (hDASPO_341, 341 amino acids), UniProt Q99489; encoded by the pET11-His-hDASPO plasmid; Same protein as m1, with the dye; also called labeled hDASPO; source: E. coli BL21(DE3) LOBSTR, purified (HiTrap chelating column), labelled with the RED-NHS labeling kit second generation
T2 sequence (looked up): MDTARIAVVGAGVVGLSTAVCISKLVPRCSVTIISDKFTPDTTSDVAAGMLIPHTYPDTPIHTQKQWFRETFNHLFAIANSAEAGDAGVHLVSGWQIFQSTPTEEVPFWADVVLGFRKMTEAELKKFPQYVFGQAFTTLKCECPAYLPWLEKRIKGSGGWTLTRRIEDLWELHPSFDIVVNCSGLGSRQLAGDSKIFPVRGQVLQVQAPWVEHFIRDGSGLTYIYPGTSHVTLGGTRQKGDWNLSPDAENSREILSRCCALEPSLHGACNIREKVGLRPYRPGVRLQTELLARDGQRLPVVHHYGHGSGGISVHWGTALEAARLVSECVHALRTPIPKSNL


Assays:
[1] = target: T1, hDASPO (hDASPO_341), human D-aspartate oxidase; assay: quenching of apoprotein tryptophan fluorescence (~[…] nm), titration; format: binding
[2] = target: T2, hDASPO-RED (recombinant hDASPO labelled …); assay: MST; Monolith NT.115; 10 nM hDASPO-RED with 3 nM to 100 μM label-free pLG72 variant; conditions: both partners purified

Kd [1] [µM]	Kd [2] [µM]	Molecule
0.016		Cc1cc2nc3c(=O)[nH]c(=O)nc-3n(C[C@H](O)[C@H](O)[C@H](O)COP(=O)(O)OP(=O)(O)OC[C@H]3O[C@@H](n4cnc5c(N)ncnc54)[C@H](O)[C@@H]3O)c2cc1C [FAD]
	6.8 ± 0.6	pLG72 R30 variant (wild type), recombinant (natural protein, UniProt P59103 1-153, looked up, primate-specific protein pLG72 (18 kDa), wild type with Arg at position 30; kept in 0.06% N-lauroyl sarcosine; also called R30 pLG72; wild-type (R30) pLG72; source: E. coli BL21-Codon plus (DE3)-RIL, recovered from insoluble inclusion bodies, purified) MLEKLMGADSLQLFRSRYTLGKIYFIGFQRSILLSKSENSLNSIAKETEEGRETVTRKEGWKRRHEDGYLEMAQRHLQRSLCPWVSYLPQPYAELEEVSSHVGKVFMARNYEFLAYEASKDRRQPLERMWTCNYNQQKDQSCNHKEITSTKAE
	3.8 ± 0.4	pLG72 R30K variant (Arg30Lys), recombinant (natural protein, UniProt P59103 1-153, looked up, primate-specific protein pLG72 (18 kDa), Arg30Lys variant related to schizophrenia susceptibility; kept in 0.06% N-lauroyl sarcosine; also called R30K pLG72; source: E. coli BL21-Codon plus (DE3)-RIL, recovered from insoluble inclusion bodies, purified) MLEKLMGADSLQLFRSRYTLGKIYFIGFQKSILLSKSENSLNSIAKETEEGRETVTRKEGWKRRHEDGYLEMAQRHLQRSLCPWVSYLPQPYAELEEVSSHVGKVFMARNYEFLAYEASKDRRQPLERMWTCNYNQQKDQSCNHKEITSTKAE
